Experimental data taken from US20060140932A1 (APPLIED MOLECULAR EVOLUTION, published 2006).
Residue numbers refer to the chain shown, from its start.

B1: W17 (IgG1) (antibody)
heavy: not shown
light: DIQMTQSPSSLSASVGDRVTITCKFSQDIDRFLSWFQQKPGKAPKSLIYRVKRLVDGVPSRFSGSGSGTDFTLTISSLQPEDFATYYCVQYDEFPYGFGGGTKVEIKRTVAAPSVFIFPPSDEQLKSGTASVVCLLNNFYPREAKVQWKVDNALQSGNSQESVTEQDSKDSTYSLSSTLTLSKADYEKHKVYACEVTHQGLSSPVTKSFNRGEC
notes: humanized, IgG1 kappa
B2: U43 (IgG1) (antibody, V domains shown)
VH: QVQLVQSGAEVKKPGSSVKVSCKASGYTFDRYWIEWVRQAPGQGLEWMGEILPGSGDINYNEKFKGRVTITADKSTSTAYMELSSLRSEDTAVYYCARMYYDYDQGFSLWGQGTLVTVSS
VL: DIQMTQSPSSLSASVGDRVTITCKASQDIDRFLSWFQQKPGKAPKSLIYRVKRLVDGVPSRFSGSGSGTDFTLTISSLQPEDFATYYCVQYDEFPYTFGGGTKVEIKR
notes: humanized, IgG1 kappa
B3: W13 (IgG1) (antibody, V domains shown)
VH: B2 VH with S108D, L109Y
VL: B2 VL with A25F, S34T, V89I
notes: humanized, IgG1 kappa
B4: W18 (IgG1) (antibody, V domains shown)
VH: B2 VH with D57T, S108D, L109N
VL: B2 VL with A25F
notes: humanized, IgG1 kappa
B5: Mu007 (antibody, V domains shown)
VH: QVQLQQSGAELMKPGASVKISCKATGYTFSRYWIEWIKQRPGHGLEWIGEILPGNGNINYNEKFKGKATISADSSSETAYMQLSSLSSEDSAVYYCSTIYYDYDQGFTYWGQGTLVTVSA
VL: DIKMTQSPSSMYASLGERVTITCKASQDIDRYLSWFQQKPGKSPKTLIYRVKRLVDGVPSRFSGSASGQDYSLTISSLQYEDMGIYYCLQYDEFPYTFGGGTKLEIK
B6: W17 (IgG4) (antibody)
heavy: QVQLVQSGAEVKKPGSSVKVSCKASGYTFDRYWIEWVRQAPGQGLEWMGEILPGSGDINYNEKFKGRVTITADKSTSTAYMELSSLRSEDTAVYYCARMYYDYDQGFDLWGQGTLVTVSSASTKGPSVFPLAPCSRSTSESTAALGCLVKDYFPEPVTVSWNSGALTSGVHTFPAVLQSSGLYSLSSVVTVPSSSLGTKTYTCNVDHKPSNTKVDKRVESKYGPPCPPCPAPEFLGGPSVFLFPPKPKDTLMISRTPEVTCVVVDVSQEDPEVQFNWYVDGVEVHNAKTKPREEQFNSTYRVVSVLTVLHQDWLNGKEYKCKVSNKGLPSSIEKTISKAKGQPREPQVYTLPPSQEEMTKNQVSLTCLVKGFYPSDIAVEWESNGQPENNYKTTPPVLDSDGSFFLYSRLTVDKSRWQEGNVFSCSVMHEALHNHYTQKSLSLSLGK
light: B1 light
notes: humanized, IgG4 kappa
B7: W20 (IgG1) (antibody, V domains shown)
VH: B2 VH with S108D, L109Y
VL: B2 VL with A25F
notes: humanized, IgG1 kappa

What follows are binders tested against T1, human IL-1β (human, UniProt P01584 117-269) (assay: cell-based or functional assay).

Binder | IL-6 Serum Levels in mice, human IL-1β 3 µg/kg + antibody 13 µg/kg | IL-6 Serum Levels in mice, human IL-1β 3 µg/kg + antibody 27 µg/kg | IL-6 Serum Levels in mice, human IL-1β 3 µg/kg + antibody 81 µg/kg | IL-6 Serum Levels in mice, human IL-1β 3 µg/kg + antibody 270 µg/kg
B1 | 567 pg/mL | 410 pg/mL | 114 pg/mL | 27.5 pg/mL
B2 | 756 pg/mL | 509 pg/mL | 186 pg/mL | 39.3 pg/mL
B3 | 655 pg/mL | 277 pg/mL | 129 pg/mL | 23.4 pg/mL
B4 | 398 pg/mL | 232 pg/mL | 77.9 pg/mL | 18 pg/mL

Each binder was assayed against T1, human IL-1β (assay: SPR (BIAcore), captured antibody, human IL-1β flowed; protocol for Mu007 as in PCT/US02/21281; HBS-EP pH 7.4, 25 C).

Binder | Kd | koff | kon
B5 | 6.2 pM | 0.00016 s⁻¹ | 2.6e+07 M⁻¹ s⁻¹

What follows are binders tested against T1, human IL-1β (assay: SPR (BIAcore), antibody captured on protein A, human IL-1β flowed; HBS-EP pH 7.4, 25 C).
Description: BIAcore™ is an automated biosensor system that measures molecular interactions. (Karlsson, et al. (1991) J. Immunol. Methods 145: 229-240). In these experiments antibody was captured to a surface at low density on a BIAcore™ chip. Ethyl-dimethylaminopropyl-carbodiimide (EDC) was used to couple reactive amino groups to protein A to a flow cell of a carboxy-methyl (CM5) BIAcore sensor chip. Protein A was diluted in sodium acetate buffer, pH 4.5, and immobilized on a flow cell of a CM5 chip using EDC to yield 1000 response units. Unreacted sites were blocked with ehanolamine. A flow rate of 60 μl/min was used. […] Elution was performed with glycine-HCl, pH 1.5. BIAevaluation™ was used to analyze the kinetic data.

Binder | Kd | koff | kon
B1 | 2.8 pM | 9e-05 s⁻¹ | 3.1e+07 M⁻¹ s⁻¹
B6 | 3.3 pM | 0.0001 s⁻¹ | 3.2e+07 M⁻¹ s⁻¹
B2 | 4.7 pM | 0.00022 s⁻¹ | 4.7e+07 M⁻¹ s⁻¹
B3 | 2.8 pM | 0.00017 s⁻¹ | 6.1e+07 M⁻¹ s⁻¹
B4 | 4.2 pM | 0.00018 s⁻¹ | 4.1e+07 M⁻¹ s⁻¹
B7 | 2.7 pM | 0.0001 s⁻¹ | 3.8e+07 M⁻¹ s⁻¹

Molecular target: T1, human IL-1β
Experiment: cell-based or functional assay
Remark: another data set of the same source

Binder | Fold Increase in Potency (against Mu007), T1165.17 cell proliferation assay | IC50, T1165.17 cell proliferation assay (human IL-1β 0.3 pM)
B1 | 11 fold | 1.8 pM
B6 | 12 fold | 1.7 pM
B2 | 5 fold | 4 pM
B3 | 17 fold | 1.2 pM
B4 | 10 fold | 2 pM
B7 | 17 fold | 1.2 pM
B5 | 1 fold | 20.6 pM
